test: soluble on expression in E. coli; label from the status in PepcDB or PDB records

Sequence | soluble on expression in E. coli
MSLKDRYILAFETSCDETSVAVLKNDDELLSNVIASQIESHKRFGGVVPEVASRHHVEVITACIEEALAEAGITEEDVTAVAVTYGPGLVGALLVGLSAAKAFAWAHGLPLIPVNHMAGHLMAAQSVEPLEFPLLALLVSGGHTELVYVSEAGDYKIVGETRDDAVGEAYDKVGRVMGLTYPAGREIDELAHQGQDIYDFPRAMIKEDNLEFSFSGLKSAFINLHHNAEQKGESLSTEDLCASFQAAVMDILMAKTKKALEKYPVKTLVVAGGVAANKGLRERLATEITDVNVIIPPLRLCGDNAGMIAYASVSEWNKENFANLDLNAKPSLAFDTMEEGHHHHHH | soluble
MFENNETLIVWSETDVMDLALSFQEKSGCEELWQKICEVQGRDPGDPDATFDDGDDSDVGEMPSSASRLQLPPIEIGRLGELDALLHMHLTTNSAREKMTLAIENDNVVTKLCEVFRMCEDIEHTEGLRTFYSIVKNLFMLNRNTVIEMLLDDNNIKDVIGMFEFDPAYKHPRKHRDFVYKKAKFREVLNISCDELRDKIHRLYRAQYIQDACLPSLGLFEENLLSTLSSHVFFCRVDIVTLLQKDKKAMSELFGQLISEETDVIRRRDLALFLKEMISLSTSIPSNGPAATKETFFKVLQNMFNSEILDSLEPCFKSPDHETRAVMVDVLRTMVDANAQMIRDFLLKQSKTKDKNEDVLLNMMIRHLLTDIDVHLTSGSEIVLIMKTLLDPENMTTVKSERSDFLQLFYNRCYESLLKPILENVSGGNIKKDDYMIANRQSVILRLLTFCVEHHSFSMRQRCVSNDLMNKVLVLLKSKHSFLVLSALKLLQRVVTVKDDKYIRYIVKEKVLDPVMECFRKNGNRYNIINSSVLHLFEFVRSEDVRPLIKYVVENHMEVVDSVNYVKTFKEIKIRYDQHRDREETMSVRSEDNSLASPRSFRKDRNEDQWFDEDEDLEVGTMLESIEKDSVAVSPKKEEAGQRKTGMEPMFPSLLKRKNAFDDDEAPVFGGGSAAVINNTEKKIVIKVNSDRSPSRTPSPASSPRASSSPGPSRDDEVTSSQNNKESSPTPTVKSLVDYDESDDSDDDPPSPDAVPSSSTGSPEKEGDSADGKKGDSPEYNDVSSTSNEEKFDSRNGAPVTNENGGVEAAAPTVEISRKRTSDGIDPDAKRIRTEETAPAATATVSQA | not soluble
MAAEGDFLMRYRAVSNKLKKRFLRKPNVAEASEQFGQLAKELKQQDCPQYAAFCNLAMARCEQTLFNAPGEALALTDAARLFLASEQETRALRAPGFDENMQAAMNCYSFAIKVYIEMNQPVMAARLSLELGNALKEMNRPGEAIIHFQRAAELQIQMPIEALLSLWEMASCKILTRDYDGALAVLSEMQHMCQERGLQLPGTNTPVGAFMDIIAKCEISRVLLLMLLEPPPQKLLPEHAQTLERYAWESFDSHSQMACQEKDTESLKALQTELW | not soluble
MSNYTIIDLNQQPHLIPSAAQWFSQKWQIPAEAYQASMQEMLTSENHVPHWWVCLNKQQDIVAGVGVIDNDFHNRADLTPNLCALYVEPTFRHQGLAGILLTTVGDFLANSGFKKLYLLTDHTTFYERYDWEFLTMVTTEEQSCARIYQKQLRQ | not soluble
MAHHHHHHMSINRYNYKTMNSLLKDKIPQHFDILPHTTIKCIIHPSVIFTILDAYLRRDEDQTHVIGTLMGSVIDTNLVEISDCFVDKHSLNEGGFLQIIKDHHETMYELKQKIRPRDQVVGWFCSGSELSELSCAVHGWFKEHNSISKFYPHTPLNEPIHLLVDASLESGFLNIKAYVQLPISLVKDYFVHFHEIQTELLPCNVERADVSLVKGNIHAHKDNHTNNLEHNHNNNQIDMNELSLKKLLIMLKQCKSYVQDVIDQKKKGNISVGRYLHKVLSNDTFLTLEKFDSINESVLQDNLMISYLSNLANLQFLIAEKLNSSSLQ | not soluble
PLGLAPTASTTATLAMGDALAVALLIERGFRPEDFALFHPGGSLGKKLLLTVGDLMHSGDAVPLVGSATPIRDALFVITAKGLGITGVCAEDGALVGVVTDGDLRRSLGKGVDILNQPAGEIMTRNPKRINRSELAAKALQVMESHSITSLFVFDDTADNRPVGVIHLHDLLRA | not soluble
MEVEYMNFNELNLSDNILNAIRNKGFEKPTDIQMKVIPLFLNDEYNIVAQARTGSGKTASFAIPLIELVNENNGIEAIILTPTRELAIQVADEIESLKGNKNLKIAKIYGGKAIYPQIKALKNANIVVGTPGRILDHINRGTLNLKNVKYFILDEADEMLNMGFIKDVEKILNACNKDKRILLFSATMPREILNLAKKYMGDYSFIKAKINANIEQSYVEVNENERFEALCRLLKNKEFYGLVFCKTKRDTKELASMLRDIGFKAGAIHGDLSQSQREKVIRLFKQKKIRILIATDVMSRGIDVNDLNCVINYHLPQNPESYMHRIGRTGRAGKKGKAISIINRREYKKLRYIERAMKLKIKKLKFG | soluble
MKPTVNVVFNAHHPKDTQPLDKFFDKELKDTHHLDITVGYISEKSLQYLLLIAGTHPDLTITLTCGMHAREGMTAAQLHHARVLHDYLSDHDRGGVFVIPRLRYHGKIYLFHKNQHTDPIAYIGSANLSAIVPGYTSTFETGVILDPAPEDLVLHLNRDVVPLCVPIDTAHVPIIKDQESPMKHVAEATAVSTSDVVAIMSSPFTYSFDLKLKATASSNLNAHNSGGGARKQKNGSFLARNWYEGEIIVGVETTRLPGYPQNKSEFTAVTDDGWSFVCKISGGNGKNLRSKGDLSILGTWLKSRFIEQGALEYGEDATQENIDRFGRTHMTMRYHPDFDVWSFDLSQTPKP | not soluble
DVSQKIKDIDDQIQQLLLKQRHLLSKMASSMKSLKNCQKELISTQILQFEAQNMDVSMNDVIGFFNEREADLK | soluble
MKATLHPYQEYSKNFILDHPYCALMLDMGLGKTLSSLTAIDELLHTFEIIENVLVIAPLSVAEKTWTDEIEKWDHLQHLTFSKVLGNPKQREEALFKKADVYLINRENVEWLVNYYQRNWPFKTVIIDELSSFKSSSAKRFKALRKVRPKMERVIGLTGTPSPNSLMDLWAQMYLLDQGERLGKTITQYRNKYFVPAQKNGHIVYSWQLIPGAEEAIYNKISDICVSMKAKDYLRLPPRTENIIELDLNPTSWKQYKELEREYVLELEGTDVVASNAATLSNKLLQLSNGAVYDENGDGREIHQEKLNALERVIEDAQGQSVLVFYQYQHDLERIQARFKQAKALNVSDGDIEKWNEGKISLLLAHPQSAGHGLNLQKGGHIIVWFGLTWSLEFYQQANARLDRQGQTQPVIIHHLVTKGTIDEQVIKALQAKEQGQSALMAAVKAKIEEYRGDKLG | not soluble
MNGLATSLGKGQESAIGGSSAIGEYIRPLPQPGDRPEPLSAKPTFLSRSGSARCRSESDMENERNSNTSKQRYSGKVHLCVARYSYNPFDGPNENPEAELPLTAGKYLYVYGDMDEDGFYEGELLDGQRGLVPSNFVDFVQDNESRLASTLGNEQDQNFINHSGIGLEGEHILDLHSPTHIDAGITDNSAGTLDVNIDDIGEDIVPYPRKITLIKQLAKSVIVGWEPPAVPPGWGTVSSYNVLVDKETRMNLTLGSRTKALIEKLNMAACTYRISVQCVTSRGSSDELQCTLLVGKDVVVAPSHLRVDNITQISAQLSWLPTNSNYSHVIFLNEEEFDIVKAARYKYQFFNLRPNMAYKVKVLAKPHQMPWQLPLEQREKKEAFVEFSTLPAGPPAPPQDVTVQAGVTPATIRVSWRPPVLTPTGLSNGANVTGYGVYAKGQRVAEVIFPTADSTAVELVRLRSLEAKGVTVRTLSAQGESVDSAVAAVPPELLVPPTPHPRPAPQSKPLASSGVPETKDEHLGPHARMDEAWEQSRAPGPVHGHMLEPPVGPGRRSPSPSRILPQPQGTPVSTTVAKAMAREAAQRVAESSRLEKRSVFLERSSAGQYAASDEEDAYDSPDFKRRGASVDDFLKGSELGKQMVS | not soluble
RHVTGVHSPTKPASYSVKWTIEEKELFEQGLAKFGRRWTKISKLIGSRTVLQVKSYARQYFKNKVKCGLDKETPNQKTGHNLQVKNEDKGTKAWTPSCLRGRADPNLNAVKIEKLSDDEEVDITDEVDELSSQTPQKNSSSDLLLDFPNSKMHETNQGEFIASDSQEALFSKSSRGCLQNEKQDETLSSSEITLWTEKQSNGDKKSIELNDQKFNELIKNCNKHDGRGIIVDARQLPSPEPCEIQKNLNDNEMLFHSCQMVEESHEEEELKPPEQEIEIDRNIIQEEEKQAIPEFFEGRQAKTPERYLKIRNYILDQWEICKPKYLNKTSVRPGLKNCGDVNCIGRIHTYLELIGAINFGCEQAVYNRPQTVDKVRIRDRKDAVEAYQLAQRLQSMRTRRRRVRDPWGNWCDAKDLEGQTFEHLSAEELAKRREEEKGRPVKSLKVPRPTKSSFDPFQLIPCNFFSEEKQEPFQVKVASEALLIMDLHAHVSMAEVIGLLGGRYSEVDKVVEVCAAEPCNSLSTGLQCEMDPVSQTQASETLAVRGFSVIGWYHSHPAFDPNPSLRDIDTQAKYQSYFSRGGAKFIGMIVSPYNRNNPLPYSQITCLVISEEISPDGSYRLPYKFEVQQMLEEPQWGLVFEKTRWIIEKYRLSHSSVPMDKIFRRDSDLTCLQKLLECMRKTLSKVTNCFMAEEFLTEIENLFLSNYKSNQENGVTEENCTKELLM | soluble
MGSDKIHHHHHHMAGTHLFHGCQAAPLLPESTPFYCTRTIFFKPAFYCVEGSGVKTNPMKINAGTPDSVNQQVIVIGAGVIGLANAVTLARRGFKVTVIDKEGVAAGASFGNAGHFATEQVFPLADPSLLPKLPKMLLDPLGPFRIRPAYFHRALPWFVRFIVNMMPARRQHNGNAIKALNARSMAATKELLTFCGRADLLVENGSLLVFETQDPRVMEQELALYNDAGIAVRLLSGDEARALEPDLSDAISGALWFTEVGHTPNPRAICEALADTLKALGGRIEIDSVCSLQGGNTPSVTTETGKVTKADKLLLCAGAWSRPLALKLGHRVPLETERGYHLMMPQHSGLKRPVASYERKFIITPMEDGTRLAGTVEFGGLNAPMSNARADCLLPHARVLLPKVFATARVSEGKRWMGFRPSLPDSLPVLGESQTPGVYFAFGHQHLGLTWAASSAELLGQLICGETPSIDLSPYCVKRFD | not soluble
MSINNTQNNCRFCSEISQANGEDPIGTAIAVEQYLIIEAAQPWPIPIWIEPDPMPQGVIEALNFIWEGGGTVRQLAIAPDKEYSHPGYTRVIYYRRPAKFFAQFEKQEFIVPHALLGSLALALLKNPEELPNFNQYRQQTNHIREILVCNHGNVDAACSRFGYPIYQKLRSEYAAATNSNLRFWRCSHFGGHEFAPTLVDLPQGQYWGHLKPEILDLLVLRNGSVKELYPYYRGWGGLSFFEQIAEREIWMLEGWKWLEYHKAGQVLASDEINQEWADVRIDFTTVDGNISSAYQARVEVKGSVMTAWKSGANPTLEEVKQYRVRNLVKLAL | not soluble
MASYKQNLPPSALIKQQVNVADKKSKAEVQRDRQLEEDRKAGTAPAMVDVQTGRDINPHIPMFISQNPWYVPSEGPTLKHQRPHEEREKKMTQIHEWYQKGTTGKSATKFRKGACENCGAMGHQKRDCFDRPRKSNAKETNDNIAEDDYVQPNLTLGFDAKRDRWNGYDPSTHKQVIEDYEHLEEARKVVREHEMKEGEVEPATTEDGAPKDEDMYAEDADMAGVSVDMDSRTRITVRNLRIREDTAKYLYNLAENSPYYDPKSRSMRENPFAGVAGKELEAARFSGDNFVRYSGEVTAANEAQVFAWQATRGGVYAHSIAEPTKLEALKKEYEKEKSTLKNETQKELLDKYGGGEHMERPADELLLAQTESYIEYNRKGKVIKGKEKVAISSRFKEDIYPQNHTSVFGSFWREGRWGYKCCHQFVKNSYCTGKQGIEAETSAAKGTTTSNEEIFKVPKLVEKTEVKEEKEKEDSIKDEVAEENSDNDNDEEKEKVSEKSISPSPPSDDEEKEKEREKERLIEKERRERDQRRRDKKREKRERKKAKLGKRKRRHRDSDDESDPSSGSGSESDSDEEMRKAMKKAKREKAEGMKAAREGDRGRKYNTDYSNTAPNEKEMEAYRVTSVHSADPMAAYMNSKFEKKHTK | not soluble

Source: the DeepSol protein solubility set
